The target in test [1] is recombinant ObgE of Bacteroides vulgatus MGM001, nucleotide-free (Bacteroides vulgatus MGM001). Put plainly: ITC; MicroCal iTC200; nucleotide-free rObgE (40 μM) titrated with 400 μM cyclic dipeptide at 25 °C in 20 mM HEPES (pH 7.5), 150 mM NaCl, 5 mM MgCl2, 1 mM β-mercaptoethanol; single binding site model. For orientation: Isothermal titration calorimetry measures the heat released or taken up as one component is titrated into another.

In another test the target is T1, ObgE (rObgE) (Phocaeicola vulgatus, UniProt A6L100).
T1 construct: gene obg; 45 kDa; nucleotide-free (alkaline phosphatase, gel filtration)
T1 sequence (A6L100 1-394): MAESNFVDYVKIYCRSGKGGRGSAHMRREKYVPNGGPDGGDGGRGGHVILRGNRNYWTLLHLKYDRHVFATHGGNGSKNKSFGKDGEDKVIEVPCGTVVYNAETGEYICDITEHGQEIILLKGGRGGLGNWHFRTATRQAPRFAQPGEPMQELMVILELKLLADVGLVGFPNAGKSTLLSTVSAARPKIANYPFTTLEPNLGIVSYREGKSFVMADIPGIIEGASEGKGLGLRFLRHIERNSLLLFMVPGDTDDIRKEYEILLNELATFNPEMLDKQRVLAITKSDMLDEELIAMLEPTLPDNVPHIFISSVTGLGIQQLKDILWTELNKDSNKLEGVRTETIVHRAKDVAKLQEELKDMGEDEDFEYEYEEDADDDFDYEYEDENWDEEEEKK
Put plainly: isothermal titration calorimetry. The test is classed as binding.

For 2 compounds, Kd and stoichiometry N results are on record in publication PMC8293591, “Vibrio vulnificus induces the death of a major bacterial species in the mouse gut via cyclo-Phe-Pro” (Microbiome, 2021).

Regarding cyclo-(phenylalanine-proline) (peptide), in test [1], the Kd was determined as 1800 nM and the stoichiometry N worked out at 0.78.
At ObgE (rObgE), `O=C1N[C@@H](Cc2ccccc2)C(=O)N2CCC[C@@H]12` [cFP] came in with a Kd of 1800 ± 350 nM.

As a reminder, the Kd is the free concentration of one partner at which half of the binding sites on the other are occupied at equilibrium, for simple one-to-one binding. As usually defined, the stoichiometry N is the number of molecules, sites or subunits per partner or assembly.
